According to the RNAGym collection of RNA variant scans (doi:10.1073/pnas.2313332121):

B1: TPR t1 (parent)
chain: GACCAAUCUGCCCUCAGAGCUCGAGAACAUCUUCGGAUGCAGAGGAGGCAGGCUUCGGUGGCGCGAUAGCGCCAACGUCCUCAACCUCCAAUGCAUCCCACCACAUGAUGAUGCCUGAAGAGCCUUGGUUUUUUG

Variants of: B1
Assay: polymerase ribozyme fitness, log enrichment relative to wild type (log ratio); higher = more active; in vitro selection for triplet polymerase activity
Method in brief: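 Both subunits of a heterodimeric triplet polymerase ribozyme were given their own mutant library, built by PCR and transcribed. Each library was annealed with a biotinylated primer, the partner subunit and triplets, incubated frozen at −7 °C, and its extended constructs gel-excised, captured on streptavidin beads and amplified by RT-PCR, all in one round done in triplicate. Fitness is the logarithm of genotype enrichment relative to wild-type enrichment, with replicates averaged by inverse-variance weighting. That logarithm is base 2, and Illumina-sequenced genotypes needed ≥10 input reads and ≥1 read per output.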

Variant | polymerase ribozyme fitness (log ratio)
GACCAAUCUGACCUCAGAGCUCGAGAACAUCUUCGGAUGCAGAGGAGACUGGCUUCGGUGGCGCGAUAGUGCCAACGUCCUCAACCUCCAAUGCAUGCCACCACAUGAUGAUGCCUGAAGAACCUUGGUUUUUUG [C11A G48A A50U C70U C97G G122A] | -5.3
GACCAAUCUGACCUCAGAGCUCGAGAACAUCUUCGGAUGCAGAGGAGGCAGGCUUCGGUUGCGCGAUAGCGCCUACGUCCUCAACCUACAAUGCAUCCCACCACAUGAUGAUGCCUGAAGAGCCUUGGUUUUUUG [C11A G60U A74U C88A] | -2.8
GACCAAUCUGACCUCAGAGCUCGAGAACAUCUUCGGAUGCAGAGGAGGCAGGCUUCGGUGGUGCGAUAGCGCCAACGUCCUCAACCUCCAAUGAAUCCCACCACAUGAUGAUGCCUGAAGAGCCUUGGUUUUUUG [C11A C62U C94A] | -2.43
GACCAAUCUGACCUCAGAGCUCGAGAACAUCUUCGGAUGCAGAGGAGUCAGGCUUCGGUGGCGCGUUAGCGACAACGUCCUCAACCUCCAAUGCAGCCCACCACAUGAUGACGCCUGAAGAGCCUUGGUUUUUUG [C11A G48U A66U C72A U96G U112C] | -2.05
GACCAAUCUGACCUCAGAGCUCGAGAACAUCUUCGGAUGCAGAGGAGGCACGCUUCGGUGGCGCGAUAGCGCCAACGUCCUCAACCUCCAAUGCAUCCCACCACAUGAUGAUGCCUGAAGAGCCUUGGUUUUUUG [C11A G51C] | -4.99
GACCAAUCUGACCUCAGAGCUCGAGAACAUCUUCGGAUGCAGAGUAGGCAGGCUUCGGUGGCGCGAUAGCGCCAACGUCCUCAACCUCCAAUGCCUCCCACCACAUGAUGAUUCCUGAAGAGCCUUGGUUUUUUG [C11A G45U A95C G113U] | -7.14
GACCAAUCUGACCUCAGAGCUCGAGAACAUCUUCGGAUGCAGAUGAGGCAGGCUUUGGUGGCGCGAUAGCGCCAACGUCCUCAACCUCCAAUGCAUCCCACCACAUGAUGAUGCCUGAAGAGCCUUGGUUUUUUG [C11A G44U C56U] | -2.23
GACCAAUCUGACCUCAGAGCUCGAGAACAUCUUCGGAUGCAGAGGAGGGAGGCUUCGGUGGCCCGAUAGCGCCAACGUACUCAACCUCCAAUGCAUCCCACCACAUGAUGAUGCCUGAAGAGCCUUGGUUUUUUG [C11A C49G G63C C79A] | -6.2
GACCAAUCUGACCUCACAGCUCGAGAACAUCUUCGGAUGCAGAGGAGGCAGGCUCCGGUGGCGCGAUAGCGCCAACGUCCUCAACCUUCAAUGCAUCCCACCACAUGAUGAUGCCUGAAGAGCCUUGGUUGUUUG [C11A G17C U55C C88U U131G] | -5.05
GACCAAUCUGACCUCAGAGCUCGAGAACAUCUUCGGAUGCAGAGGAGGCAGGUUUAGGUGGCACGAUAGCGCCAAGGUCCUCAACCUCCAAUGCAUCCCACCACAUGAUGAUGCCUGAAGAGCCUUGGUUUUUUG [C11A C53U C56A G63A C76G] | -3.79
GACCAAUCUGACCUCAGAGCUCGAGAACAUCUUCGGAUGCAGAGAAGGCAGGCUUCGGUGACGCGAUAGCGCCAACGUCCUCAACCUCCAAUGCAUCCCACCACAUGAUGAUGCCUGAAGAGCCUUGGUUUUUUG [C11A G45A G61A] | -1.68
GACCAAUCUGACCUCAGAGCUCGAGAACAUCUUCGUAUGCAGAGGAGGCAGGCUUCGGUGGCGCGAUAGCGCCAACCUCCUCAACCUCCAAUGCAUCCCACCACAUGAUGAUGCCUGAAGAGCCUUGGUUUUUUG [C11A G36U G77C] | -3.38
GACCAAUCUGACCUCAGAGCUCGAGAACAUCUUCGGAUGUAGAGGAGGUAGGCUUAGGUGGCGCGAUAGCGCCAACGUCCUCAACCUCCAAUGCAUCCCACCACAUGAUGAUGCCUGAAGAGGCUUGGAUUUUUG [C11A C40U C49U C56A C123G U129A] | -3.2
GACCAAUCUGACCUCAGAGCUCGAGAACAUCUUCGGAUGCAGAGGAGGCAGGGUUCAGUGGCGCGAUAGCGCCAACGUCCUCAACCUCCAAUGCAUCCCACCACAUGAUGAUGCCUGAAGAGGCUUGGUUUUUUG [C11A C53G G57A C123G] | -1.45
GACCAAUCUGACCUCAGAGCUCGAGAACAUCUUCGGAUGUAGAGGAGGCAGGCUUCGGUGGCGCGAUAUCGCCAACGUCCUCGACCUCCAAUGCAUCCCACCACAUGAUGAUGCCUUAAGAGCCUUCGUUUUGUG [C11A C40U G69U A83G G117U G127C U133G] | -4.24
GACCAAUCUGACCUCAGAGCUCGAGAACAUCUUCGGAUGCAGAGGAGGCAGGCUUAGGUGGCGCGAUAGCGCCAACGUCCGCAUCCUCCAAUGCAUCCCAUCACAUGAUGAUGCAUGAACAGCCUUGGUUUUUGG [C11A C56A U81G A84U C101U C115A G120C U134G] | 0.0951
GACCAAUCUGACCUCAGAGCUCGAGAACAUCUUCGGAUGCAGAGGAGGCAGGCUUCGGUGGCGUGAUAGCGCCAACGUCCUCAACCUCCAAUGCAUCCCACCACAUGAUGAUGCCUGAAGAGCCUUGGUUUUUUG [C11A C64U] | -1.04
GACCAAUCUGACCUCAGAGCUCGAGAACAUCUUCGGAUGCAGAGGAGGCAGGUUUCGGUGGCGCGAUAGCGCCAACGUCCUCAAACUCCAAUGCAUCCCACCACAUGAUGAUGCCUGAAGAGCCUUGGUUUUUUG [C11A C53U C85A] | -3.03
GACCAAUCUGACCUCAGAGCUCGAGAACAUCUUCGGAUGCAGAGGAGGCAGGCUUCGGUGGCGCGAUAGCGGCAACGUCCUCAACCUCCAAUGCAUCCCACCACAUGAUGAUGCCUGAAGAGCCUUGGUUUUUUG [C11A C72G] | -1.14
GACCAAUCUGACCUCAGAGCUCGAGAACAUCUUCGGAUGCAGAGGAGGCAGGCUUAGGUGGCGCGAUAGCGCCAACGUCCUCAACCUCCAAUGCAUCCCCCCACAUGAUGAUGCCUGAAGAGCCUUGGUUUUUUG [C11A C56A A100C] | -3.86
GACCAAUCUGACCUCAGAGCUCGAGAACAUCUUCGGAUCCAGAGGAGGCAGGCUUCGGUGGCGCGAUAGCGCCAACGUCCUCAACCUCCAAUGCAUCCCACCACAUGAUCAUGCCUGAAGAGCCUUGGUUUUUUG [C11A G39C G110C] | -5.5

Variant | polymerase ribozyme fitness (log ratio)
GACCAAUCUGACCUCAGAGCUCGAGAACAUCUUCGGAUGCAGAGGAGGCAGGGUUCGGUCGCGCGAUAGCGCCAACCUCCUCAACGUCCAAUGCAUCCCACCACAUGAUGAUGCCUGAAGAGCCUUGGUUUUUUG [C11A C53G G60C G77C C86G] | -4.21
GACCAAUCUGACCUCAGAGCUCGAGAACAUCUUCGGAUGCAAAGGAGGCAGGCUUCGGUGGCGCGAUAGCGCCAACGUCCUCAACUUCCAAUGCAACCCACCACAUGAUGAUGCCUGAAGAGCCUUGGUUUUUUG [C11A G42A C86U U96A] | -4.6
GACCAAUCUGACCUCAGAGCUCGAGAACAUCUUCGGAUGCAGAGGAGGCAGGCUUCGGUGGCUCGAUAGCGCCAACGUCCUCAACCUCCAAUGCAUCCCACCACAUGAUGAUGCCUGAAGAGCCUUGGUUUUUUG [C11A G63U] | -1.77
GACCAAUCUGACCUCAGAGCUCGAGAACAUCUUCGGAUGCAGAGGAGGCAGGCUUCGGUCGCGCGAUAGCGCCAACGUCCUCAACCUCCAAUGCCUCCCACCACAUGAUGAUGCCUGAAGAGCCUUGGUUUUUUG [C11A G60C A95C] | -1.9
GACCAAUCUGACCUCAGAGCUCGAGAACAUCUUCGGAUGCAGAGGAGGCAGGCUUCGGUGGCGCGAUAGCGCAAACGUCCCCAACCUCCAAUGCAUCCCACCACAUGAUGAUGCCUGAAGAGCCAUGGUUUUUUG [C11A C73A U81C U125A] | -3.38
GACCAAUCUGACCUCAGAGCUCGAGAACAUCUUCGGAUGCAGAGGAGGCAGACUUCGGUGGCGCGAUGGCGCCAACGUCCUCAACCUCCAAUGCAUCCCAUCACAUGAUGAUGCCUCAAGAGCCUUGGUUUUUUG [C11A G52A A68G C101U G117C] | -7.38
GACCAAUCUGACCUCAGAGCUCGAGAACAUCUUCGGAUGCAGAGGAGGCAGACUUCGGUGGCGCGAUAGCGCGAACGUCCUCAACCUCCAAUGCAUCCCACCACAUGAUGAUGCCUGAAGAGCCUUGGUUUUUUG [C11A G52A C73G] | -2.98
GACCAAUCUGACCUCAGAGCUCGAGAACAUCUUCGGAUGCAGAGAAGGCAGGCUUCGGUAGCGCGAUAGCGCCAACGUCCUCAACCUCCAAUGCAUCCCACCACAUGAUGAUCCCUGAAGAGCCUUGGUUUUUUG [C11A G45A G60A G113C] | -4.47
GACCAAUCUGACCUCAGAGCUCGAGAACAUUUUCGGAUGUAGAGGACGCAGGCUUCGGUGGUGCGAUAGCGCCAACGUCCUCAACCUCCAAUGCAUCCCACCACAUAAUGAUGCCUGAAGAGCCUUGGUUUUUUG [C11A C31U C40U G47C C62U G107A] | -4.34
GACCAAUCUGACCUCAGAGCUCGAGAACAUCUUCGGAUGCAGAGGAGGCAGGCUUCGGUGGCGCGAUAGCGCUAACGUCCUCAACCUCCAAUGUAUCCCACCACAUGAUGAUGCCUGAAGAGCCUUGGUUUUUUG [C11A C73U C94U] | -1.82
GACCAAUCUGACCUCAGAGCUCGAGAACAUCUUCGGAUGCAGAGGAGGCAGGCUUCGGUGGCGCGAUAUCGCCAACGUCCUCAACCUCCAAUGUAUCCCACCACAUGAUGAUGCCUGAAGAGCCUUGGUAUUUUG [C11A G69U C94U U130A] | -1.6
GACCAAUCUGACCUCAGAGCUCGAGAACAUCUUCGGAUGGAAAGGAGGCAGGCUUCGGUGGCGCGAUAGCACCAACGUCCUCAACCUCCAAUGCAUCCCACCACAUGAUGAUGCCUGAAGAGCCUUGGUUUUUUG [C11A C40G G42A G71A] | -4.67
GACCAAUCUGACCUCAGAGCUCGAGAACAUCUUCGGAUGCAGAGGAGUCAGGCUUCGGUGGCGCGAUAUCGCCAACGUCCUCAACCUCCAAUGCAUCCCACCCCAUGAUGAUGCCUGAAGAGCCUUGGUUUUUUG [C11A G48U G69U A103C] | -3.74
GACCAAUCUGACCUCAGAGCUCGAGAACAUCUUCGGAUGCAGAGGAGGGAGGCUUCGGUGGCGCGAUAGCGCCAACGUCCUCAACCUCCAAUGCAUCCCACCACAUGAUGAUGCCUGAAGAGCCUUGGCUUUUUG [C11A C49G U129C] | -2.01
GACCAAUCUGACCUCAGAGCUCGAGAACAUCUUCGGAUGCAGAGGAGGCAGGCUUCGGUGGCGCGAUAGCACCAACGUCCUCAACCUCCAAUGCAUCCCACCACAUGAUGAUGCCUGAAGAGCCUUGGUUUUUUG [C11A G71A] | -1.67
GACCAAUCUGACCUCAGAGCUCGAGAACAUCUUCGGAUGCAGAGGAGGCAGGCUUCGGUGGCGCGAUAUCGCCAACGUUCUCAACCUCCAAUGCAUCCCACUACAUGAUGAUGCCUGAAGAGCCUUGGUUUUUUG [C11A G69U C79U C102U] | -1.74
GACCAAUCUGACCUCAGAGCUCGAGAACAUCUUCGGAUGCAGAGGAGGCAGGCUUCAGUGGCGCGAUAGCGCAAACGUCCUCAACCUGCAAUGCAUCCCACCACAUGAUGAUGCCUGAAGAGCCUUGGUUUUUUG [C11A G57A C73A C88G] | -4.51
GACCAAUCUGACCUCAGAGCUCGAGAACAUCUUCGGAUGCAGAGGAGGCAGGCUUCGGUCGCGCGAUAGCGCCAACGUCCUCAACCUCCAAUGCAUCCCACCACAUGAUGAUGCCUGAAGAGCCUUGGUUUUUUG [C11A G60C] | -1.7
GACCAAUCUGACCUCAGAGCUCGAGAACAUCUUCGGAUGCAGAGGAGGCAGGCUUCGGUGGCGCGAUAGCGCCAACGUCCUCAACCUCCAAUGCAUCCCACCACAUGAUGAUGCGUGAAGAGCCUUGGUUUUUUG [C11A C115G] | -3.42
GACCAAUCUGACCUCAGAGCUCGAGAACAUCUUCGGAUGCAGAGGAGGCAGCCCUCGGUGGCGCGAUAGCGCCAACGUCCUCAACCUCCAAUGUAUCCCACCACAUGAUGAUGCCUGAACAGCCUUGGUUUUUUG [C11A G52C U54C C94U G120C] | 0.0193
GACCAAUCUGACCUCAGAGCUGGAGAACAUCUUCGGAUGCAGAGGAGGCAGGCUUCGGUGGCGCGAUAGCGCCAACGUCCUCAACCUCCAAUGCAUCCCACCACAUGAUGAUGCCUGAAGAGCCUUGGUUUUUUG [C11A C22G] | -4.15
